Test results reported in paper PMC10681739, “High-throughput data and modeling reveal insights into the mechanisms of cooperative DNA-binding by transcription factor proteins”.

B1: Table S2 A row 601 (dsDNA)
DNA 1: CATTCAGTAAAAGGATGTGGTTTAGAACAGATGAAA
DNA 2: TTTCATCTGTTCTAAACCACATCCTTTTACTGAATG
B2: Table S2 A row 1610 (dsDNA)
DNA 1: ACACCTCAGGCAGGATGTGGTAGGGGTTGCCCCAGA
DNA 2: TCTGGGGCAACCCCTACCACATCCTGCCTGAGGTGT
B3: Table S2 A row 329 (dsDNA)
DNA 1: TCCAGCTCCACAGGATGTGGTGAGTGAAGCAGCAAG
DNA 2: CTTGCTGCTTCACTCACCACATCCTGTGGAGCTGGA
B4: Table S2 A row 1319 (dsDNA)
DNA 1: GAGGAACCCAAAGTAGGATGTGGTTTTGCAATTGGA
DNA 2: TCCAATTGCAAAACCACATCCTACTTTGGGTTCCTC
B5: Table S2 A row 719 (dsDNA)
DNA 1: TTGCCATTCCAGGAAATGAGCTTACCACATTGACTG
DNA 2: CAGTCAATGTGGTAAGCTCATTTCCTGGAATGGCAA
B6: Table S2 A row 123 (dsDNA)
DNA 1: TTTATCATGAATGCAGGATGTGGGCAGACTCACAGC
DNA 2: GCTGTGAGTCTGCCCACATCCTGCATTCATGATAAA
B7: Table S2 A row 144 (dsDNA)
DNA 1: GCCACACTGGCGGAAATGGTGGTTACTGTTCGAGCC
DNA 2: GGCTCGAACAGTAACCACCATTTCCGCCAGTGTGGC
B8: Table S2 A row 793 (dsDNA)
DNA 1: GTTCAGCAGGAAGTGGATGTGGATGTGTGGTTGCCA
DNA 2: TGGCAACCACACATCCACATCCACTTCCTGCTGAAC
B9: Table S2 A row 186 (dsDNA)
DNA 1: GAAGTGTGCTCTTCCGGTACCTGCGGTTCGTTGCGC
DNA 2: GCGCAACGAACCGCAGGTACCGGAAGAGCACACTTC
B10: Table S2 A row 104 (dsDNA)
DNA 1: TGGGGACCACTGTCAGGATGTGGTCACTGGAGTCAC
DNA 2: GTGACTCCAGTGACCACATCCTGACAGTGGTCCCCA
B11: Table S2 A row 364 (dsDNA)
DNA 1: AATGAAGGAGGGGCAGGATGTGGTCTTGGTGAATCA
DNA 2: TGATTCACCAAGACCACATCCTGCCCCTCCTTCATT
B12: Table S2 A row 1336 (dsDNA)
DNA 1: CACCTCGGGGGTTTCCGGTCCGTGGTTAGCTCCTTC
DNA 2: GAAGGAGCTAACCACGGACCGGAAACCCCCGAGGTG
B13: Table S2 A row 866 (dsDNA)
DNA 1: CTGAAACAGGAAGCTGAGGGTGCGGTTGGGGGAGGA
DNA 2: TCCTCCCCCAACCGCACCCTCAGCTTCCTGTTTCAG
B14: Table S2 A row 1358 (dsDNA)
DNA 1: CAGCCTTGCCGGAAGGCAGAGTTTGTGGTCAGACCG
DNA 2: CGGTCTGACCACAAACTCTGCCTTCCGGCAAGGCTG
B15: Table S2 A row 638 (dsDNA)
DNA 1: CAAGGCACCAACGGATGTGGTATCTGGTGAGGGCTT
DNA 2: AAGCCCTCACCAGATACCACATCCGTTGGTGCCTTG
B16: Table S2 A row 1755 (dsDNA)
DNA 1: CAGAGCCAAACATGCGGAAGTGGTTACGTGTACTAG
DNA 2: CTAGTACACGTAACCACTTCCGCATGTTTGGCTCTG
B17: Table S2 A row 1069 (dsDNA)
DNA 1: AAAGCATTTCCTGCCTTGACTTAACCACAAGACAGG
DNA 2: CCTGTCTTGTGGTTAAGTCAAGGCAGGAAATGCTTT
B18: Table S2 A row 1086 (dsDNA)
DNA 1: TTTCTGACACTCTCAGGATGTGGGTTTTCACACTGT
DNA 2: ACAGTGTGAAAACCCACATCCTGAGAGTGTCAGAAA

Target: ETS1:RUNX1 (Homo sapiens, UniProt P14921;Q01196 full;full)
Sequence (P14921 whole entry, chain 1 of 2): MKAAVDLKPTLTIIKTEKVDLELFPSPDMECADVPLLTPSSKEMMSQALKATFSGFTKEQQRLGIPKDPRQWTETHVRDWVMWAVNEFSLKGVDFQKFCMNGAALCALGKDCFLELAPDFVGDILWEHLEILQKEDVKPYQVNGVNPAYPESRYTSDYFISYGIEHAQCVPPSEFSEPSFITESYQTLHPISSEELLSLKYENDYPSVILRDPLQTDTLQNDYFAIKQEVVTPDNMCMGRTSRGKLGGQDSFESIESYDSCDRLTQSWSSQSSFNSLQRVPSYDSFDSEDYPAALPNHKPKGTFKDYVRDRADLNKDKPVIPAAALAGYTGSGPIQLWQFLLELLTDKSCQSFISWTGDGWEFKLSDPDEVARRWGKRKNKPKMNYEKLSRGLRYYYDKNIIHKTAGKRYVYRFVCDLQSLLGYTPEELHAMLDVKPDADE
Sequence (Q01196 whole entry, chain 2 of 2): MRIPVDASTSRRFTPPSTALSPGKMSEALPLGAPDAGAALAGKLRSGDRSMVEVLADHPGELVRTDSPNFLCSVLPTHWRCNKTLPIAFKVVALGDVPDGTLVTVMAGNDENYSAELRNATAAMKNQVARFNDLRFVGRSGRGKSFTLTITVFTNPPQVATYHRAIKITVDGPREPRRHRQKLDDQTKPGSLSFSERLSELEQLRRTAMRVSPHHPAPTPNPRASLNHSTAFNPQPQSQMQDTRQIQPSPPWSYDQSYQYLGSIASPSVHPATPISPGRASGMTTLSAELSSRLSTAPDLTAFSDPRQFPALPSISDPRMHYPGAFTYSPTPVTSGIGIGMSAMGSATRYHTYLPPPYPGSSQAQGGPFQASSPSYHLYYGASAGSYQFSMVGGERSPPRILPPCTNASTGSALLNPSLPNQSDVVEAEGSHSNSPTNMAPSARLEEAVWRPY
Assay: gcPBM; 1 nM ETS1 + 25 nM RUNX1, anti-ETS1 signal, normalised
Settings: tags: N-terminal GST (pDEST15), kept (PMC6008103); copies: 1;1; label: surface-attached array probe

Binder | binding signal
B1 | 6340 PBM fluorescence, median of replicate spots
B2 | 6800 PBM fluorescence, median of replicate spots
B3 | 6260 PBM fluorescence, median of replicate spots
B4 | 6860 PBM fluorescence, median of replicate spots
B5 | 6220 PBM fluorescence, median of replicate spots
B6 | 6920 PBM fluorescence, median of replicate spots
B7 | 6760 PBM fluorescence, median of replicate spots
B8 | 7060 PBM fluorescence, median of replicate spots
B9 | 7140 PBM fluorescence, median of replicate spots
B10 | 6580 PBM fluorescence, median of replicate spots
B11 | 7160 PBM fluorescence, median of replicate spots
B12 | 6540 PBM fluorescence, median of replicate spots
B13 | 6680 PBM fluorescence, median of replicate spots
B14 | 6650 PBM fluorescence, median of replicate spots
B15 | 6740 PBM fluorescence, median of replicate spots
B16 | 6770 PBM fluorescence, median of replicate spots
B17 | 6290 PBM fluorescence, median of replicate spots
B18 | 6500 PBM fluorescence, median of replicate spots
